For the assay, the target named is T1, cKit receptor on normal human CD34+ bone marrow cells (Homo sapiens, UniProt P10721).
T1 construct: host or cells: normal human CD34+ bone marrow cells (primary)
The experiment in a line: cKit receptor levels on bone marrow cells by flow cytometry. Format: cell-based. As to conditions: 10 μg/ml. As for the experimental part: In another internalization experiment, the impact of NEG085 on cKit receptor levels was evaluated on human bone marrow cells. Normal human CD34+ bone marrow cells (All Cells, Cat #ABM022F, Emeryville, Calif.) were thawed and washed with 10 mL of StemPro0-34 SFM medium (Gibco, Life Technologies, Carlsbad, Calif.). Cells were resuspended in 1.25 mL of StemPro-34 SFM medium at 4×10^5 cells/mL and split equally into two tubes. […] 100 μL of cell suspension was collected at each timepoint (0, 15, 30, 60, 120, and 240 min) from each condition, and placed into an ice cold collection tube to cease internalization. Cells were washed with 3 mL of ice-cold FBS stain buffer and resuspended in 100 μL of FBS stain buffer. […] of 104D2-BV421 (mouse anti-human IgG1 k, Biolegend) was added to each tube and incubated on ice for 1 hour. Following another wash with FBS stain buffer, total cKit receptors were measured by flow cytometry by assessing the mean fluorescence intensity of BV421 on a FACS Canto II® (BD Biosciences, San Jose, Calif.).
On the technique in general: Flow cytometry measures light scatter and fluorescence of single cells or particles in a stream.

T1 sequence (P10721 26-976): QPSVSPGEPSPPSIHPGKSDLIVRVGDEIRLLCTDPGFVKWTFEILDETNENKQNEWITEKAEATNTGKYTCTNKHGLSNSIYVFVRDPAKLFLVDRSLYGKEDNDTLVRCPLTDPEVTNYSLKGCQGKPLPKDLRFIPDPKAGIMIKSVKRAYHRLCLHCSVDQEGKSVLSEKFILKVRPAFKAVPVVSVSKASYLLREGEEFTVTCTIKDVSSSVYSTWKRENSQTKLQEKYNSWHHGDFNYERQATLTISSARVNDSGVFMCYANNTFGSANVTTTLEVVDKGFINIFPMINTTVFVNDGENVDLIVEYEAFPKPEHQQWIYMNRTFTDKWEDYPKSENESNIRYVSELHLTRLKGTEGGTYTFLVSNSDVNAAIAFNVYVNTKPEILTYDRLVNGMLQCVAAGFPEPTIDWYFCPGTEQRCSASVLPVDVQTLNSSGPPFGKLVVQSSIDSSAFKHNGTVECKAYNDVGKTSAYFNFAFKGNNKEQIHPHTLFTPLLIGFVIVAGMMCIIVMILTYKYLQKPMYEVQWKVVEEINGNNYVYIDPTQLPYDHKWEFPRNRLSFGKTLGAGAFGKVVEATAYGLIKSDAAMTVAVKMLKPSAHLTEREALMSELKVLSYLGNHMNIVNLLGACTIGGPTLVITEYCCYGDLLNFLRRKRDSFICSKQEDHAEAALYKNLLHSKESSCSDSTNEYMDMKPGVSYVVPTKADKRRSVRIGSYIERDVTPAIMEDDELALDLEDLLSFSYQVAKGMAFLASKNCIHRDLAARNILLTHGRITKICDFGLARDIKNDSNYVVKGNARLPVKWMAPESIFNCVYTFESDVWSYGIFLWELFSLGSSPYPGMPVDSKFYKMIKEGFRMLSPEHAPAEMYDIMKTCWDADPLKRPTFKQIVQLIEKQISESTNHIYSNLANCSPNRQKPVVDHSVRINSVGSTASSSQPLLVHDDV

B1: NEG085: anti-cKIT antibody of Table 1; VH SEQ ID NO 82, VL SEQ ID NO 91; derived from 9P3 (antibody, V domains shown)
VH: EVQLVESGGGLVQPGGSLRLSCAASGFAFSGYYMAWVRQAPGKGLEWVANINYPGSSTYYLDSVKGRFTISRDNAKNSLYLQMNSLRAEDTAVYYCARGDYYGTTYWYFDVWGQGTTVTVSS
VL: DIQMTQSPSSLSASVGDRVTITCRASQSISSYLNWYQQKPGKAPKLLIYYTSRLQSGVPSRFSGSGSGTDFTLTISSLQPEDFATYYCQQGRRLWSFGGGTKVEIK
For the molecule B1, the “time of the bulk of the internalization” value was determined as 15 min. Further, where the note is “0-240 min”, the cKIT internalization entry is given as “rapidly internalized”.
